The target in assay [1] is T1, FLAG-HPV11 E6 (HPV11, UniProt P04019 1-150).
T1 construct: Flag-E6 fusion protein from transfected 293T cell lysate, captured on a coated flag antibody
T1 sequence: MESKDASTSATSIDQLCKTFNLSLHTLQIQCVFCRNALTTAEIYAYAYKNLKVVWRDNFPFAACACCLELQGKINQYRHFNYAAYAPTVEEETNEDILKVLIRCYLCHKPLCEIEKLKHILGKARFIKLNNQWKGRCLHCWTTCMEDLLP
The assay is described as follows: sandwich ELISA: flag antibody capture of 293T lysate, A4F9 supernatant 1:1.

Assay [2] addresses T2, FLAG-HPV6 E6 (HPV6, UniProt P06462 1-150).
T2 construct: Flag-E6 fusion protein from transfected 293T cell lysate, captured on a coated flag antibody
T2 chain: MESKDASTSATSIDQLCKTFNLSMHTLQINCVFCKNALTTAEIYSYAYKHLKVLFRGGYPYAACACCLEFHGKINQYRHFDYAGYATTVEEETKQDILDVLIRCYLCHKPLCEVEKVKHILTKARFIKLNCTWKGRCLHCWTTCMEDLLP
The assay is described as above.

The target of assay [3] is T3, FLAG-HPV18 E6 (HPV18, UniProt P06463 1-158).
T3 construct: Flag-E6 fusion protein from transfected 293T cell lysate, captured on a coated flag antibody; also called 可溶性蛋白HPV18 E6
The assay is described as follows: sandwich ELISA: flag antibody capture of 293T lysate (fresh or liquid-based fixed).

For assay [4], the target named is T4, Flag-HPV16 E6 (HPV16, UniProt P03126 1-158).
T4 chain: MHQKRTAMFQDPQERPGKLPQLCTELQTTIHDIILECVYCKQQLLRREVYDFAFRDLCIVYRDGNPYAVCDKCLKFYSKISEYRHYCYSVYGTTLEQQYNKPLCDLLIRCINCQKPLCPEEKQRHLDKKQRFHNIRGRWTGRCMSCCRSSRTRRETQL
The description is as above.

The target of assay [5] is T5, HPV18 E6蛋白 (宫颈癌细胞株Hela细胞内源表达) (HPV18, UniProt P06463 1-158, limits assumed).
T5 construct: whole, on cells; Intracellular protein in fixed cells, stained by immunocytochemistry; HeLa cells were mixed into a pool of negative clinical samples
The assay is described as follows: immunocytochemistry on fixed HeLa cells mixed with a negative clinical pool, DAB.

Assay [6] deals with T6, HPV16 E6蛋白 (宫颈癌细胞株CaSki细胞内源表达) (HPV16, UniProt P03126 1-158).
T6 construct: whole, on cells; Intracellular protein in fixed cells (95% ethanol, EDTA heat retrieval), stained by immunocytochemistry; also called CaSki阳性标准对照细胞
The assay is described as follows: immunocytochemistry on fixed CaSki cells, DAB.

In assay [7] the target is T1, FLAG-HPV11 E6. The assay is described as follows: sandwich ELISA: flag antibody capture of Flag-E6 from 293T lysate, A4F9 supernatant 1:1. A general note: ELISA stands for enzyme-linked immunosorbent assay.
Assay [8] deals with T2, FLAG-HPV6 E6. The description is as above.
Assay [9] addresses T7, FLAG-HPV68 E6 (HPV68).
T7 construct: Flag-E6 fusion protein from transfected 293T cell lysate, captured on a coated flag antibody
Described as above.

For assay [10], the target named is T1, FLAG-HPV11 E6. As to the kind of experiment: sandwich ELISA; (HPV OD450 - 293T negative control)/HPV16 OD450, HPV16 E6 = 100%.
Assay [11] has as its target T2, FLAG-HPV6 E6. The assay is described as above.
In assay [12] the target is T7, FLAG-HPV68 E6. The assay is described as above.

T3 sequence (P06463 whole entry, the tested form may be a part): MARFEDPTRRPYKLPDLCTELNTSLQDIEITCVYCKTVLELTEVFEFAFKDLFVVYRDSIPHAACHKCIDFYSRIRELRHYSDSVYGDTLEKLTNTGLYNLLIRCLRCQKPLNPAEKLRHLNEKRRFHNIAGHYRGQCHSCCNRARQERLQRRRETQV
T5 sequence (P06463 whole entry): as the sequence (P06463 whole entry, the tested form may be a part) above

B1: 抗HPV E6兔源单克隆抗体 A4F9 (antibody, V domains shown)
VH: QEQLVESGGGLVQPEGSLTLTCTASGFSFSSSYWICWVRQAPGKGLEWIACIYSGDGDAYYASWAKGRFTISKTSSTTVTLQMTSLTAADTAAYFCARDRVYDSSSGHGLWGPGTLVTVSS
VL: DIVMTQTPFSVSAAAGGTVTINCQASENIYSNLAWYQQKPGQRPKLLIYGTSDLPSGVPSRFSGSGYGTEFTLTISDLECADAATYYCQSYYYRSSSAYGWDFGGGTEVVVK
notes: Rabbit monoclonal from single B cell cloning, tested as clone supernatant (rabbit IgG, detected with goat anti-rabbit-HRP); also called 克隆上清A4F9; A4F9克隆
For B1, the binding result is listed as “no binding” in assay [1]; “no binding” in assay [2]; “binds” in [3]; “binds” in assay [4]; “binds” in assay [5]; “binds” in [6]. Moreover, the figures for the OD450 in [7], in assay [8] and in [9] were 0.1, 0.1 and 0.5, respectively. The figures for the “%交叉活性” value in assay [10], in assay [11] and in assay [12] were -5.2%, -6.3% and 6.3%, respectively.

The values are drawn from patent CN116410306A (ATTOGEN BIOMEDICAL SUZHOU INC LTD, dated 2023).
